Assay results reported in patent US20230393125A1 (Hoffmann-La Roche, published 2023).

Target: T1, recombinant cynomolgus CCL2 (cynomolgus monkey, UniProt P61274 24-99)
T1 construct: also called cyCCL2; cynomolgus monkey CCL2
Assay: Gyrolab sandwich assay; detection reagent
Procedure: A Gyrolab™ based method was used in this example. Recombinant cynomolgus CCL2 samples were prepared in assay buffer (PBS, 0.1% (v/v) Tween-20, 1% BSA) and analyzed on a Gyrolab Xplore. […] All reagents and samples were transferred to a 96-well PCR plate and loaded into the instrument together with a Gyrolab BioAffy 200 nL disc (Gyros Protein Technologies AB). A three-step assay protocol (200-3W-001) was selected. […] Each reagent reaches the column at the same time after a short spinning step is applied to the disc. The columns were washed with PBS with 0.05 Tween after each step and finally laser induced fluorescence values were recorded within the instrument. A non-linear 4-parameter curve-fitting function (Wiemer-Rodbard) was applied to the averaged raw data to obtain a calibration curve.

binding result: binds
B1: humanized anti-CCL2 antibody 11K2 (CCL2-0002) (antibody, V domains shown)
VH: QVQLVQSGAEVKKPGSSVKVSCKASGLTISDTYMHWVRQAPGQGLEWMGRIDPANGNTKFDPKFQGRVTITADTSTSTAYMELSSLRSEDTAVYYCARGVFGFFDYWGQGTTVTVSS
VL: DIQMTQSPSSLSASVGDRVTITCKATEDIYNRLAWYQQKPGKAPKLLISGATSLETGVPSRFSGSGSGTDYTLTISSLQPEDFATYYCQQFWSAPYTFGGGTKVEIK
modifications: Used as a digoxigenin or Alexa 647 conjugate; conjugation sites not stated.
notes: Detection reagent; also called Humanized 11K2; 11K2-Dig
